From patent US20200093883A1 (XIGEN INFLAMMATION, published 2020)
Square brackets hold non-standard residues; d marks the D form. Ends that are not written are not given here.

Target: c-Jun N-terminal kinase (JNK) in primary mouse cortical neurons (mouse)
Assay: cell-based or functional assay

B1: JNK inhibitor according to SEQ ID NO: 172 ("XG-104") (peptide)
peptide: [dR]KKR[dR]QRR[dR]RP[dK]RP[dA]TLNL[dF]-NH2
modifications: N-terminus assumed
SMILES: CC(C)C[C@H](NC(=O)[C@H](CC(N)=O)NC(=O)[C@H](CC(C)C)NC(=O)[C@@H](NC(=O)[C@@H](C)NC(=O)[C@@H]1CCCN1C(=O)[C@H](CCCNC(=N)N)NC(=O)[C@@H](CCCCN)NC(=O)[C@@H]1CCCN1C(=O)[C@H](CCCNC(=N)N)NC(=O)[C@@H](CCCNC(=N)N)NC(=O)[C@H](CCCNC(=N)N)NC(=O)[C@H](CCCNC(=N)N)NC(=O)[C@H](CCC(N)=O)NC(=O)[C@@H](CCCNC(=N)N)NC(=O)[C@H](CCCNC(=N)N)NC(=O)[C@H](CCCCN)NC(=O)[C@H](CCCCN)NC(=O)[C@H](N)CCCNC(=N)N)[C@@H](C)O)C(=O)N[C@H](Cc1ccccc1)C(N)=O
JNK activity (ratio pJNK/JNK, immunoblot), neurons exposed to 2 µM Aβ42, pre-treatment with 5 µM XG-104: decrease: 29.2%
JNK activity (ratio pJNK/JNK, immunoblot), neurons exposed to 2 µM Aβ42, pre-treatment with 10 µM XG-104: decrease: 60%
JNK activity (ratio pJNK/JNK, immunoblot), neurons exposed to 25 µM Aβ42, pre-treatment with 5 µM XG-104: decrease: 17.5%
JNK activity (ratio pJNK/JNK, immunoblot), neurons exposed to 25 µM Aβ42, pre-treatment with 10 µM XG-104: decrease: 59.6%
